This note sets out measurements from US20240101645A1 (HENRY M JACKSON FOUNDATION FOR THE ADVANCEMENT OF MILITARY …, published 2024).

B1: COV_3019 (antibody, V domains shown)
VH: EVQLVESGGGLVQPGQSLRLSCTTSGFNFGDNSMSWVRQAPGKGLEWVGFISPKSHGETTEYAASVKGRFSISRDDSTSIAYLQMSSLKTEDTAIYYCIRDSYGHFPEYGFDIWGQGTMVTVSS
VL: DVVLTQTPLFLSVTPGQPASISCKSSRSLIHSDGKTYFYWFLQKAGQPPQLLIYEASNRFSGVPDRFSGSGSGTDFTLHISRVEAEDVGIYYCMHSIQLPRTFGQGTKVELT
B2: COV_3028 (antibody, V domains shown)
VH: B1 VH with E58G, I80N, S86T
VL: B1 VL with R27G, S32T
B3: COV_3031 (antibody, V domains shown)
VH: B1 VH with Q16R, P53N, S55A, H56Y, E58G, S71T, S86N, E108D
VL: B1 VL with A45P, H79K, I90V, L111I
B4: COV_1071 (antibody, V domains shown)
VH: QVHLVQSGAEVQKPGASVKISCKASGDTFSESYVHWVRQAPGSGLEWMGIINTRDGDTNYTHQFQDRVMMTTDTSTSTVFLELYSLTSEDTAVYYCARAPDQYFDYWGQGSPVTVSA
VL: DIVMTQTPLSSPVTLGQPASISCRSSESLVHSNGNTYLSWLQQRPGQPPKLLIYRVSNRFSGVPDRFSGSGAGTEFTLKISRVEAEDVGVYYCMQARHFPRTFGQGTKVEIKR
B5: COV_1045 (antibody, V domains shown)
VH: B4 VH with F29L, E31D, Y84F
VL: DIVMTQTPLSSPVTLGQPASISCRSSESLVHSNGNTYLSWLQQRPGQPPRLLIYRVSNRFSGVPDRFSGSGAGTEFTLKISRVEAEDVGVYYCMQARHFPRTFGQGTKVEIK
B6: COV_1086 (antibody, V domains shown)
VH: GAQLLESGGALVQPGGSLRLSCAASGFTFNNYGMGWVRQTPGKGLEWVSTINDNGGNTHYADSVKGRFTISRDNSKHTLYLQMNSLRVEDTALYYCAKDVGGPALFEYWGHGTLVTVSS
VL: B4 VL with P12S, E27Q, N33D, S39T, R55K, V56I, F60L, E75D, R97T, V109L
B7: COV_1087 (antibody, V domains shown)
VH: QVQLVQSGAEVQKPGASVKVSCKASGDTFSYHYVHWVRQAPGYGLEWMGIIDPRNADTNYTQKFQGRVTMTTDTSTNTVFLELSSLTSDDTAVYYCARAPDQYFDYWGQGSPVTVSA
VL: B4 VL with R24K, V30L, N33D, K50R, E75D, K79R, R97T, H98Q
B8: COV_1076 (antibody, V domains shown)
VH: QVQLVESGGGLVKPGGSLRLSCAASGFTFSEYSMSWIRQAPGKGLEWVSFIGGSGDYTNYADSVKGRFTISRDNAKNLLYLQMNTLRVEDTAVYYCARRGSANCGDDWWGQGTLVTVSS
VL: DIVMTQSPDSLAVSLGERATINCKSSHGVLYRSNNKDHLAWYQQKPGHPPKLLIYWASIRESGVPDRFSGSGSGTDFTLTISGLQAEDVAVYYCQQYYGNPTFGGGTKVEIKR
B9: COV_1037 (antibody, V domains shown)
VH: QVQLVESGGGVVQPGRSLRLSCAASGFTFSSYGMHWVRQAPGKGLEWVAVIWYDGSNKYYADSVKGRFTISRDNSKNTLYLQMNSLRAEDTAVYYCARGGYQLLWHYYYYYGMDVWGQGTTVTVSS
VL: not shown
B10: COV_2018 (antibody, V domains shown)
VH: QVQLVQSGAEVKKPGSSVKVSCKASGGTSSSYAISWVRQAPGQGLEWIGGIIPIFDTTKYAQKFQGRVTITADESTNTAYMEVSSLRSEDTAVYYCAKVADRVGASTGELDYWGQGTLVTVSS
VL: EVVLTQSPATLSLSPGERGTLSCRASQSISNYLAWYQQKPGQAPRLLIYNASNRATGVPARFSGSGSGTDFTLTISSLEPEDFAVYYCQQRSNWPPWTFGQGTKVEIK
B11: COV_1198 (antibody, V domains shown)
VH: EVQLVEAGGDLVQPGGSLRLSCSASGFTFTSYSIHWVRQAPGKGLEYVSTISHGGDITDFADSVKGRFTISRDNSENTVYLQMSSLRPEDTAVYYCARSNFWLDYWGQGTLVTVSS
VL: KIVMTQSPATLSVSPGDSATLSCRASQSVSSNLAWYQQKPGQAPRLLISGAFTRATGIPARFSGSGSGTEFTLTISSLQSEDFAVYYCLQYNNWPLYTFGQGTKLEIKR
B12: COV_2066 (antibody, V domains shown)
VH: QVQLQESGPGLVKPSETLSLTCSVSGFAITNGFDWGWIRQPPRLGLEWIGTVFHTGVTYSNPSLKSRLSTSVDTSKNQFSMTLNSVTAADTGIYYCVRVQSGLEARAMSFFDYWGQGMLVSVSS
VL: DIVMTQSPDSLAVSLGERATINCKSSQNVLYSSNNKNSLAWYQQKPGQPPKVLIYWASTRVSGVPDRFIGSGSGTDFTLTISSLQAEDVAVYYCQQYSSSITFGPGTKVEVKR
B13: COV_3005 (antibody, V domains shown)
VH: EVQLLGFGGGFIRPGGSLRLSCAASGFSFSSYSMSWVRQGPGNGLEWVAGISDRGNSKTYADSVKGRFTVSRDNSKDMLYLELTNLRVEDSATYFCARDWSQSSSSSSPDYWGPGILVTVSS
VL: DIQMTQSPSAMSAFVGDRVTITCRASLGVNNYLAWYQQRPGKVPRRLIYAASSLQSGVPSRFRGSGSGTQFTLTITGLQPEDSGTYYCLQHGRYPPVFGPGTRVELI
B14: COV_1046 (antibody, V domains shown)
VH: B7 VH with H32S, Y43H, D52N, R54S, A56G, K63N, T72S, N77S, F80L
VL: B5 VL with N33D, E75D, R97K, H98D
B15: COV_2108 (antibody, V domains shown)
VH: EVQLVESGGGVVQPGRSLRLSCAASGFTFSNYAFHWVRQAPGKGLEWVAVISYDGSIKYSADSVKGRFTISRDNSKNTLYLQMNSLRAEDTAVYYCARDSGDYVDYFDYWGQGTLVTVSS
VL: DIQMTQSPSSLSASVGDRVTITCRASQSISSYLNWYQQKPGKAPKLLIHTTSSLQSGVPSRFSGSGSGTGFTLTISSLQPEDFATYYCQQSYSSPPLTFGGGTKVEIK
B16: COV_3033 (antibody, V domains shown)
VH: EVQMVESGGGFVQPGQSPRLSCLVSGLNFADYAFCWVRQAPGKGPEWIGFISSKLHGGTTHYAASVEGRFIISRDDSKNVVYLQMDNLKAEDSAVYYCTRDSYGYFPEYGFGVWGQGTLVTVSS
VL: EVVLTQTPLSLSVTPGQPASISCRSSQSLVHSDGRTYLYWFLQKPGQPPQPLIYDISSRFSGVPYRFTGSGSGTYFTLRISRVEADDVGVYYCMHSIQLPRAFGQGTKVEIK
B17: COV_3000 (antibody, V domains shown)
VH: EVQLVESGGGLVQPGRSLRLSCTASGFNFGDNSMSWVRQAPGKGLEWVGFISNRASGGTTEYAASVKGRFTISRDDSKSIAYLQMNSLKTEDTAMYFCTKDSYGHFPNYGFDIWGQGTMVTVSS
VL: AVVMTQTPLSLSVTPGQPASISCKSSQSLIHTDGKTYHYWFLQRPGQPPQLLIYDVSNRVSGVPDRFSGSGSGTDFTLKISRVEADDVGVYYCMHSIQLPRAFGQGTKVEIT
B18: COV_3013 (antibody, V domains shown)
VH: EVQLVESGGGLVQPGRSLRLSCTTSGFNFGDNSMSWVRQAPGKGLEWVGFISNKAHGATTEYAASVRGRFTISRDDSKSIVYLQMNSLTTEDTAMYYCIRDSYGHFPSYGFDIWGQGTMVTVSS
VL: B17 VL with A1D, T32S, G34A, H38F, R44K, V60F, D86E, A102T
B19: COV_3037 (antibody, V domains shown)
VH: B17 VH with S56Y, T71S, K89R, T121I
VL: B17 VL with A1V
B20: COV_2172 (SEQ ID NO:442/447) (antibody, V domains shown)
VH: EVQLVESGGGVVQPGRSLRLSCAPSGFTFSTYAMHWVRQAPGKGLEWVAVISYDGSIKYYADSVKGRFTISRDNTMNTVFLQMNSLRAEDTAVYFCAKGGERWELFTSFDYWGQGTQVTVSS
VL: QSALTQPRSVSGSPGQSVTISCTGTSSDVGGYNYVSWYQQHPGKAPKLMIYDVSKRPSGVPDRFSGSKSGNTASLTISGLQAEDEADYYCCSYAGSYTFVFGGGTKLTVL
B21: COV_1082 (antibody, V domains shown)
VH: EVQLVESGGGLVQPGGSLRLSCAASGFIFNIHGMNWFRQAPGKGLEWISHIGTSGESRDIHYADSVRGRFTISRDNGKHSLYLQMNSLTAEDTAVYFCARGLTNSDLWGQGTLVTVSS
VL: EIVMTQTPLSSPVTLGQPASISCRSSESLVHSNGDTYLSWLHQRPGQPPRLLLYKISNRFSGVPDRFSGSGAGTDFTLTISRVEAEDVGLYYCMQATSFPRTFGQGTKVEIKR

Changes are numbered by the printed parent chain.

In this experiment the target is SARS-CoV-2 S on pseudovirions (Wuhan Hu-1 / IL1/2020, last 18 amino acids removed) (SARS-CoV-2, UniProt P0DTC2 14-1273). The experiment can be described thus: cell-based or functional assay.
In the case of B1, the “Mean IC50, pSV neutralization” value is no less than 25 µg/ml and the “Mean IC80, pSV neutralization” value was no less than 25 µg/ml.

Take B2: the “Mean IC50, pSV neutralization” value was no less than 25 µg/ml and the “Mean IC80, pSV neutralization” value is no less than 25 µg/ml.

In the case of B3, the “Mean IC50, pSV neutralization” value is no less than 25 µg/ml and the “Mean IC80, pSV neutralization” value was no less than 25 µg/ml.

As to B4, the “Mean IC50, pSV neutralization” value is no less than 25 µg/ml and the “Mean IC80, pSV neutralization” value is no less than 25 µg/ml.

B5: the “Mean IC50, pSV neutralization” value was no less than 25 µg/ml and the “Mean IC80, pSV neutralization” value was no less than 25 µg/ml.

B6: the “Mean IC50, pSV neutralization” value is no less than 25 µg/ml and the “Mean IC80, pSV neutralization” value was no less than 25 µg/ml.

As to B7, the “Mean IC50, pSV neutralization” value is no less than 25 µg/ml and the “Mean IC80, pSV neutralization” value was no less than 25 µg/ml.

As to B8, the “Mean IC50, pSV neutralization” value is no less than 25 µg/ml and the “Mean IC80, pSV neutralization” value is no less than 25 µg/ml.

On to B9, for which the “Mean IC50, pSV neutralization” value was no less than 25 µg/ml and the “Mean IC80, pSV neutralization” value is no less than 25 µg/ml.

As for B10, the “Mean IC50, pSV neutralization” value stood at 0.31 µg/ml and the “Mean IC80, pSV neutralization” value was 1.27 µg/ml.

As to B11, the “Mean IC50, pSV neutralization” value was no less than 25 µg/ml and the “Mean IC80, pSV neutralization” value was no less than 25 µg/ml.

As to B12, the “Mean IC50, pSV neutralization” value is no less than 25 µg/ml and the “Mean IC80, pSV neutralization” value is no less than 25 µg/ml.

As to B13, the “Mean IC50, pSV neutralization” value was no less than 25 µg/ml and the “Mean IC80, pSV neutralization” value was no less than 25 µg/ml.

Consider B14, for which the “Mean IC50, pSV neutralization” value was no less than 25 µg/ml and the “Mean IC80, pSV neutralization” value was no less than 25 µg/ml.

As for B15, the “Mean IC50, pSV neutralization” value came to 13.5 µg/ml and the “Mean IC80, pSV neutralization” value was 15.8 µg/ml.

Regarding B16, the “Mean IC50, pSV neutralization” value is no less than 25 µg/ml and the “Mean IC80, pSV neutralization” value was no less than 25 µg/ml.

With B17, the “Mean IC50, pSV neutralization” value was no less than 25 µg/ml and the “Mean IC80, pSV neutralization” value is no less than 25 µg/ml.

As to B18, the “Mean IC50, pSV neutralization” value was no less than 25 µg/ml and the “Mean IC80, pSV neutralization” value is no less than 25 µg/ml.

B19: the “Mean IC50, pSV neutralization” value was no less than 25 µg/ml and the “Mean IC80, pSV neutralization” value is no less than 25 µg/ml.

For the molecule B20, the “Mean IC50, pSV neutralization” value amounted to 3.73 µg/ml and the “Mean IC80, pSV neutralization” value is no less than 25 µg/ml.

With B21, the “Mean IC50, pSV neutralization” value was no less than 25 µg/ml and the “Mean IC80, pSV neutralization” value was no less than 25 µg/ml.
